According to publication PMC9482650, “Quantitative fragmentomics allow affinity mapping of interactomes” (Nature Communications, 2022):

T1: APBA1_1, Q02410
T1 sequence (Q02410 651-752, limits assumed, looked up): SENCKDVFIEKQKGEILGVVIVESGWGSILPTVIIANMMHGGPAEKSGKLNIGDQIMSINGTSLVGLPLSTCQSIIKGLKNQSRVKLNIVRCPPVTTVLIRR

T2: DLG3_2, Q92796
T2 sequence (Q92796 221-321, limits assumed, looked up): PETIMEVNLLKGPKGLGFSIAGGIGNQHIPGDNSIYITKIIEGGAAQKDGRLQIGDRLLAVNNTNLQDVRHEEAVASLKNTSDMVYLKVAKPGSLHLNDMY

T3: DLG3_3, Q92796
T3 sequence (Q92796 374-475, limits assumed, looked up): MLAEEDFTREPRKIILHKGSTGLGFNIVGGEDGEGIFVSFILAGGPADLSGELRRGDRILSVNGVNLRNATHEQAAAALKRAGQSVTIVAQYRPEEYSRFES

T4: GRIP1_5, Q9Y3R0
T4 sequence (Q9Y3R0 568-668, limits assumed, looked up): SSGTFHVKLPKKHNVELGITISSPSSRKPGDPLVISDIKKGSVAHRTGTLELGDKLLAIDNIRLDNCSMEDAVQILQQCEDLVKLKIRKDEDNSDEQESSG

T5: LIN7A, O14910
T5 sequence (O14910 103-200, limits assumed, looked up): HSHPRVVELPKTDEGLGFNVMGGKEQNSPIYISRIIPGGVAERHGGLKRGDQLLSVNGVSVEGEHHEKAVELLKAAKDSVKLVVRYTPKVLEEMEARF

T6: MPDZ_5, O75970
T6 sequence (O75970 695-796, limits assumed, looked up): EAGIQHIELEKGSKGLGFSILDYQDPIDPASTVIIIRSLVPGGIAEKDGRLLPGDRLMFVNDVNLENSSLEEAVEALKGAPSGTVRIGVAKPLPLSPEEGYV

T7: MPP6, Q9NZW5
T7 sequence (Q9NZW5 125-219, limits assumed, looked up): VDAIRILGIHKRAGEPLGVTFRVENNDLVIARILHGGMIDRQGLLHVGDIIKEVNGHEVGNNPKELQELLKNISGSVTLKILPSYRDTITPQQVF

T8: RADIL, Q96JH8
T8 sequence (Q96JH8 971-1071, limits assumed, looked up): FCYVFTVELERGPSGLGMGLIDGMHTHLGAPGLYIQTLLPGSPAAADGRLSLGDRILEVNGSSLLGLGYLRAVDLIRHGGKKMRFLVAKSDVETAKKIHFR

T9: SHANK1, Q9Y566
T9 sequence (Q9Y566 658-767, limits assumed, looked up): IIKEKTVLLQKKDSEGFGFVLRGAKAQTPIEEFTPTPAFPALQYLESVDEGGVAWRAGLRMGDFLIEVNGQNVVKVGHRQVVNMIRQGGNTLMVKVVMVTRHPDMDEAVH

T10: SIPA1L2, Q9P2F8
T10 sequence (Q9P2F8 945-1036, limits assumed, looked up): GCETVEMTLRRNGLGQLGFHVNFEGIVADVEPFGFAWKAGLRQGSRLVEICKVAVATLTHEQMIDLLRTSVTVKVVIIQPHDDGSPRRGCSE


What was measured:
Assay in all cases: holdup assay
Set-up in all cases: key: below the threshold = too weak to quantify, mostly under pKd 3.1 to 4
Settings in all cases: plain residues with an end cap or a label only (N-terminal biotin on a linker: ado-ado)
APBA1_1, Q02410 = biological target: T1, APBA1_1, Q02410
ARHGEF12, Q9NZN5-2 = biological target: ARHGEF12, Q9NZN5-2
DLG2_2, Q15700 = biological target: DLG2_2, Q15700
DLG3_2, Q92796 = biological target: T2, DLG3_2, Q92796
DLG3_3, Q92796 = biological target: T3, DLG3_3, Q92796
DLG4_3, P78352 = biological target: DLG4_3, P78352
DLG5_1, Q8TDM6 = biological target: DLG5_1, Q8TDM6
FRMPD4, Q14CM0 = biological target: FRMPD4, Q14CM0
GORASP2, Q9H8Y8 = biological target: GORASP2, Q9H8Y8
GRASP, Q7Z6J2 = biological target: GRASP, Q7Z6J2
GRIP1_5, Q9Y3R0 = biological target: T4, GRIP1_5, Q9Y3R0
IL16_1, Q14005 = biological target: IL16_1, Q14005
LDB3, O75112 = biological target: LDB3, O75112
LIN7A, O14910 = biological target: T5, LIN7A, O14910
MAGI1_2, Q96QZ7 = biological target: MAGI1_2, Q96QZ7
MAGI2_2, Q86UL8 = biological target: MAGI2_2, Q86UL8
MAGI2_3, Q86UL8 = biological target: MAGI2_3, Q86UL8
MAGI3_2, Q5TCQ9 = biological target: MAGI3_2, Q5TCQ9
MPDZ_5, O75970 = biological target: T6, MPDZ_5, O75970
MPP6, Q9NZW5 = biological target: T7, MPP6, Q9NZW5
PDLIM1, O00151 = biological target: PDLIM1, O00151
RADIL, Q96JH8 = biological target: T8, RADIL, Q96JH8
SCRIB_2, Q14160 = biological target: SCRIB_2, Q14160
SCRIB_3, Q14160 = biological target: SCRIB_3, Q14160
SHANK1, Q9Y566 = biological target: T9, SHANK1, Q9Y566
SIPA1L2, Q9P2F8 = biological target: T10, SIPA1L2, Q9P2F8
TJP1_2, Q07157 = biological target: TJP1_2, Q07157
TJP2_1, Q9UDY2 = biological target: TJP2_1, Q9UDY2
Chain of TJP2_1, Q9UDY2 (Q9UDY2 24-128): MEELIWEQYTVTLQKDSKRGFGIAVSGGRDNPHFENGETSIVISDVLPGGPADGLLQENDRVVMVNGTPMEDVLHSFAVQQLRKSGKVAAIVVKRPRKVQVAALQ

Chain of ARHGEF12, Q9NZN5-2 (Q9NZN5 other isoform, or with tags, fused parts or gaps): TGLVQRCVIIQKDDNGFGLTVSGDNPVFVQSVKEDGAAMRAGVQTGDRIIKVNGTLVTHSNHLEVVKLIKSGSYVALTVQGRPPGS
Chain of DLG5_1, Q8TDM6 (Q8TDM6 617-713): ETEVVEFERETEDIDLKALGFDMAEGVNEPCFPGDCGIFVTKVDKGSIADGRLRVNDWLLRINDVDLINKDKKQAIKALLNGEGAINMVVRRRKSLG
Chain of TJP1_2, Q07157 (Q07157 181-274): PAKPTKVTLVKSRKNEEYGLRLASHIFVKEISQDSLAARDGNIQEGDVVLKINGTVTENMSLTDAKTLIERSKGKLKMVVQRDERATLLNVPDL
Chain of GRASP, Q7Z6J2 (Q7Z6J2 96-193): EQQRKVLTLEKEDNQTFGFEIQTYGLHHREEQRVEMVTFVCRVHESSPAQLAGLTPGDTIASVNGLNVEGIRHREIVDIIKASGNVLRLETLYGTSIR
Chain of FRMPD4, Q14CM0 (Q14CM0 67-160): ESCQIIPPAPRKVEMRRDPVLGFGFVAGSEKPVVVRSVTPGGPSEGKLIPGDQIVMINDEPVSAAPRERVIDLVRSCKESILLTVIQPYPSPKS
Chain of IL16_1, Q14005 (Q14005 210-306): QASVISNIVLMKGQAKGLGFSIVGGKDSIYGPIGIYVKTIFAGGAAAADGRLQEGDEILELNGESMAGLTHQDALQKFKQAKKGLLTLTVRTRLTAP
Chain of MAGI2_2, Q86UL8 (Q86UL8 410-522): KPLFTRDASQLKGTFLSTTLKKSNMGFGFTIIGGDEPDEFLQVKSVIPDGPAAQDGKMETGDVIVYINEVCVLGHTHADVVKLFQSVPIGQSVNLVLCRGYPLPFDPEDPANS
Chain of MAGI3_2, Q5TCQ9 (Q5TCQ9 398-503): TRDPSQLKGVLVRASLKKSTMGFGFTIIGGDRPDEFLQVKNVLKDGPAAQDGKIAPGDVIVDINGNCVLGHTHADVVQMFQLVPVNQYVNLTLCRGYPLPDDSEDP
Chain of SCRIB_3, Q14160 (Q14160 999-1103): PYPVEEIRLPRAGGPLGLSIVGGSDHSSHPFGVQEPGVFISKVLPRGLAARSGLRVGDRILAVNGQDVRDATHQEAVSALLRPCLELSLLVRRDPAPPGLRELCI
Chain of MAGI1_2, Q96QZ7 (Q96QZ7 456-580): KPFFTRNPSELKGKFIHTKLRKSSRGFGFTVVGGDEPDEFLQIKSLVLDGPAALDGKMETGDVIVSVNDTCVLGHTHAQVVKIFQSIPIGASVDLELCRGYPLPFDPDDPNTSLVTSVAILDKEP
Chain of DLG4_3, P78352 (P78352 306-403): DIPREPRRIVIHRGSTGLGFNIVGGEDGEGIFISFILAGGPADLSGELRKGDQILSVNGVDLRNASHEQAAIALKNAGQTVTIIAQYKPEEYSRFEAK
Chain of PDLIM1, O00151 (O00151 1-87): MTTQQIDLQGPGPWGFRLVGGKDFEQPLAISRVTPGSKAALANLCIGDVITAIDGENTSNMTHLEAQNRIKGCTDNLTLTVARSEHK
Chain of SCRIB_2, Q14160 (Q14160 857-960): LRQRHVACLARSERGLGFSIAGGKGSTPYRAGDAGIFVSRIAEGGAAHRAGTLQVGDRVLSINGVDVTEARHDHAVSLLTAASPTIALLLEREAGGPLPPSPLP
Chain of DLG2_2, Q15700 (Q15700 189-283): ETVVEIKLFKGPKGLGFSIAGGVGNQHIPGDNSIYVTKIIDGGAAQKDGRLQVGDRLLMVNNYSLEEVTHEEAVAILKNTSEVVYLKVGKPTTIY
Chain of LDB3, O75112 (O75112 1-94): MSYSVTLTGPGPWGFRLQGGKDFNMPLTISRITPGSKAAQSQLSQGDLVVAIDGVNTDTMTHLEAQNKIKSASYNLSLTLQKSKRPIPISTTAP
Chain of MAGI2_3, Q86UL8 (Q86UL8 600-682): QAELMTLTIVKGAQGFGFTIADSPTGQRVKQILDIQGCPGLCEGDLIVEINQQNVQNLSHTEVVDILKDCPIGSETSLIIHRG

Binder | pKd (APBA1_1, Q02410) | pKd (ARHGEF12, Q9NZN5-2) | pKd (DLG2_2, Q15700) | pKd (DLG3_2, Q92796) | pKd (DLG3_3, Q92796) | pKd (DLG4_3, P78352) | pKd (DLG5_1, Q8TDM6) | pKd (FRMPD4, Q14CM0) | pKd (GORASP2, Q9H8Y8) | pKd (GRASP, Q7Z6J2) | pKd (GRIP1_5, Q9Y3R0) | pKd (IL16_1, Q14005) | pKd (LDB3, O75112) | pKd (LIN7A, O14910) | pKd (MAGI1_2, Q96QZ7) | pKd (MAGI2_2, Q86UL8) | pKd (MAGI2_3, Q86UL8) | pKd (MAGI3_2, Q5TCQ9) | pKd (MPDZ_5, O75970) | pKd (MPP6, Q9NZW5) | other results
IKLETKKTKL [SLC15A2, Q16348] | below the threshold | 4.69 | 3.66 | below the threshold | 3.81 | below the threshold | 3.53 | below the threshold | below the threshold | 4.42 | below the threshold | below the threshold | below the threshold | below the threshold | 3.58 | 3.47 | 3.6 | 3.49 | below the threshold | below the threshold | pKd (PDLIM1, O00151): below the threshold; pKd (RADIL, Q96JH8): below the threshold; pKd (SCRIB_2, Q14160): below the threshold; pKd (SCRIB_3, Q14160): 3.77; pKd (SHANK1, Q9Y566): 4.85; pKd (SIPA1L2, Q9P2F8): 3.62; pKd (TJP1_2, Q07157): below the threshold; pKd (TJP2_1, Q9UDY2): 3.85
GQNMTVSVVI [PRLHR, P49683] | below the threshold | 4.13 | below the threshold | 4.31 | below the threshold | below the threshold | 3.97 | below the threshold | below the threshold | below the threshold | below the threshold | 3.81 | below the threshold | below the threshold | below the threshold | below the threshold | below the threshold | below the threshold | below the threshold | 3.71 | pKd (PDLIM1, O00151): below the threshold; pKd (RADIL, Q96JH8): 4.26; pKd (SCRIB_2, Q14160): below the threshold; pKd (SCRIB_3, Q14160): 3.66; pKd (SHANK1, Q9Y566): below the threshold; pKd (SIPA1L2, Q9P2F8): 3.54; pKd (TJP1_2, Q07157): 3.69; pKd (TJP2_1, Q9UDY2): below the threshold
NSTHNLKDYV [CLDN20, P56880] | below the threshold | below the threshold | below the threshold | below the threshold | below the threshold | below the threshold | below the threshold | below the threshold | below the threshold | 3.47 | below the threshold | below the threshold | below the threshold | below the threshold | below the threshold | below the threshold | below the threshold | below the threshold | below the threshold | below the threshold | pKd (PDLIM1, O00151): below the threshold; pKd (RADIL, Q96JH8): 3.85; pKd (SCRIB_2, Q14160): below the threshold; pKd (SCRIB_3, Q14160): below the threshold; pKd (SHANK1, Q9Y566): below the threshold; pKd (SIPA1L2, Q9P2F8): below the threshold; pKd (TJP1_2, Q07157): below the threshold; pKd (TJP2_1, Q9UDY2): 3.8
DLLGGGSDSI [TNRC6B, Q9UPQ9] | below the threshold | 3.71 | below the threshold | 3.99 | below the threshold | below the threshold | below the threshold | 3.56 | below the threshold | below the threshold | below the threshold | below the threshold | below the threshold | below the threshold | below the threshold | below the threshold | below the threshold | below the threshold | below the threshold | below the threshold | pKd (PDLIM1, O00151): below the threshold; pKd (RADIL, Q96JH8): below the threshold; pKd (SCRIB_2, Q14160): below the threshold; pKd (SCRIB_3, Q14160): below the threshold; pKd (SHANK1, Q9Y566): below the threshold; pKd (SIPA1L2, Q9P2F8): below the threshold; pKd (TJP1_2, Q07157): 3.62; pKd (TJP2_1, Q9UDY2): below the threshold
TKEIPNCTSV [SORCS3, Q9UPU3] | below the threshold | 4.54 | 4.1 | 4.22 | 4 | 3.71 | below the threshold | 3.65 | 3.75 | 4.74 | below the threshold | below the threshold | below the threshold | below the threshold | 3.94 | 4.29 | 3.98 | 4.67 | below the threshold | below the threshold | pKd (PDLIM1, O00151): below the threshold; pKd (RADIL, Q96JH8): 4.05; pKd (SCRIB_2, Q14160): 4.44; pKd (SCRIB_3, Q14160): 4.24; pKd (SHANK1, Q9Y566): 3.92; pKd (SIPA1L2, Q9P2F8): 3.49; pKd (TJP1_2, Q07157): below the threshold; pKd (TJP2_1, Q9UDY2): below the threshold
